Source: patent publication US10500256B2, “Polymers for delivery of therapeutic proteins” (BOARD OF REGENTS, THE UNIVERSITY OF TEXAS SYSTEM, priority 2014, dated 2019)

Key:
[1] = Loading and release of salmon calcitonin, urokinase and Rituxan from 1:2 P(IA-co-NVP) microparticles; assay type: physicochemical; conditions: 3 mol % TEGDMA; for Loading Level: protein loading solution 200 μg/mL; for Percent Release, t = 24 h / Protein Released, t = 24 h: t=0-1 h pH 3, then pH 7.4
Text: In an additional experiment, the loading and release of urokinase was also compared to that of sCT and rituximab using P(IA-co-NVP) microparticles synthesized with a monomer ratio of 1:2 IA to NVP. This experiment utilized urokinase as another high pI protein (pI=8.66) with a molecular weight (54.0 kDa) between that of salmon calcitonin (3.4 kDa) and rituximab (144 kDa), allowing us to see the effects across a range of sizes, rather than just two endpoints. Urokinase is used clinically as a thrombolytic agent for myocardial infarction, pulmonary embolism, and deep vein thrombosis.
This difference arises from two results. First, the hydrogels used in this experiment were crosslinked using 3 mol % TEGDMA in the monomer feed. […] Further, this experiment utilized loading solutions of proteins at only 200 μg/mL, rather than at 400 μg/mL as was used in the preceding experiment. […] With lower loading levels comes both lower overall delivery and lower percent release, as the lower loading level means less protein to be released even at 100% efficiency and, since concentration difference is the driving force for diffusion, less entropic gain due to diffusive release which therefore shifts the equilibrium toward coulombic binding rather than diffusive release.

Caco-2 monolayer [2] = experiment: Transport across Caco-2 monolayer (literature data); assay type: in vitro ADME, human; conditions: over the 3 h average residence time, assuming constant permeability
Text: Aside from limited delivery potential from the microparticle carriers, loss of bioavailability resulting from intestinal enzymatic degradation and low intestinal absorption should also be accounted for.

Caco-2 monolayer [3] = conditions: cited from earlier work
[4] = in vivo absorption of compounds with similar Caco-2 permeability; cited from earlier work

Compound | Loading Level [1] | Percent Release, t = 24 h [1] | Protein Released, t = 24 h [1] | other results
Urokinase | 19.0 ± 1.1 μg/mg hydrogel | 14.2 ± 3.2% | 2.7 ± 0.5 μg/mg hydrogel | Loading Level ([1]; listed as urokinase): 19.0 μg/mg hydrogel
CC(C)C[C@H](NC(=O)[C@H](CCCCN)NC(=O)CNC(=O)[C@H](CC(C)C)NC(=O)[C@@H](NC(=O)[C@@H]1CSSC[C@H](N)C(=O)N[C@@H](CO)C(=O)N[C@@H](CC(N)=O)C(=O)N[C@@H](CC(C)C)C(=O)N[C@@H](CO)C(=O)N[C@@H]([C@@H](C)O)C(=O)N1)C(C)C)C(=O)N[C@@H](CO)C(=O)N[C@@H](CCC(N)=O)C(=O)N[C@@H](CCC(=O)O)C(=O)N[C@@H](CC(C)C)C(=O)N[C@@H](Cc1c[nH]cn1)C(=O)N[C@@H](CCCCN)C(=O)N[C@@H](CC(C)C)C(=O)N[C@@H](CCC(N)=O)C(=O)N[C@H](C(=O)N[C@@H](Cc1ccc(O)cc1)C(=O)N1CCC[C@H]1C(=O)N[C@@H](CCCNC(=N)N)C(=O)N[C@H](C(=O)N[C@@H](CC(N)=O)C(=O)N[C@H](C(=O)NCC(=O)N[C@@H](CO)C(=O)NCC(=O)N[C@H](C(=O)N1CCC[C@H]1C(N)=O)[C@@H](C)O)[C@@H](C)O)[C@@H](C)O)[C@@H](C)O [Salmon Calcitonin] |  |  |  | Fraction expected to be transported across the intestinal epithelium (Caco-2 monolayer [2]): 0.15%; Fraction transported across a Caco-2 monolayer (Caco-2 monolayer [3]; in vitro, over 60 min, Youn et al. (2006)): 0.05%
Rituxan: large monoclonal antibody rituximab (144 kDa) | 24.1 ± 1.5 μg/mg hydrogel | 20.0 ± 3.6% | 4.8 ± 1.1 μg/mg hydrogel | Loading Level ([1]; listed as rituximab): 24.1 μg/mg hydrogel
COc1cccc2c1C(=O)c1c(O)c3c(c(O)c1C2=O)C[C@@](O)(C(=O)CO)C[C@@H]3O[C@H]1C[C@H](N)[C@H](O)[C@H](C)O1 [doxorubicin] |  |  |  | Absorption [4]: 5%
1-deamino-8-D-arginine-vasopressin |  |  |  | Apparent permeability in Caco-2 cultures (Caco-2 monolayer [3]; Caco-2): 1.3×10^−7
